Test results published in patent US10705076.

How the values were obtained:
[1] = molecular target: HLA class II antigens (HLA-DR, HLA-DQ and HLA-DP); assay: Luminex dose/response, mean over 5 class II bead types, antibody 3.13 × 10^-2 µg/ml; SD 273.56
[2] = molecular target: HLA class II antigens (HLA-DR, HLA-DQ and HLA-DP); assay: Luminex dose/response, mean over 5 class II bead types, antibody 5 × 10^-1 µg/ml; SD 160.45
[3] = molecular target: HLA class II antigens (HLA-DR, HLA-DQ and HLA-DP); assay: Boltzmann sigmoid fit of the Luminex titration curve, lower asymptote
[4] = molecular target: HLA class II antigens (HLA-DR, HLA-DQ and HLA-DP); assay: Luminex dose/response, mean over 5 class II bead types; SD 298.79
[5] = molecular target: HLA class II antigens (HLA-DR, HLA-DQ and HLA-DP); assay: Luminex, each Labscreen Mixed class II bead type, antibody at 2 µg/ml; SD approximately 700
[6] = molecular target: HLA class II antigens (HLA-DR, HLA-DQ and HLA-DP); assay: Luminex titration on Labscreen Mixed class II beads; concentration at 50% of (MAX - MIN)
[7] = molecular target: HLA class II antigens (HLA-DR, HLA-DQ and HLA-DP); assay: Luminex dose/response, mean over 5 class II bead types, antibody 2 × 10^0 µg/ml; SD 167
[8] = molecular target: HLA class II antigens (HLA-DR, HLA-DQ and HLA-DP); assay: Luminex dose/response, mean over 5 class II bead types, antibody 5 × 10^-4 µg/ml; SD 29.6
[9] = molecular target: HLA class II antigens (HLA-DR, HLA-DQ and HLA-DP); assay: Boltzmann sigmoid fit of the Luminex titration curve, upper asymptote
[10] = molecular target: HLA class II antigens (HLA-DR, HLA-DQ and HLA-DP); assay: Luminex dose/response, mean over 5 class II bead types, antibody 7.8 × 10^-3 µg/ml; SD 145.09
[11] = molecular target: HLA class II antigens (HLA-DR, HLA-DQ and HLA-DP); assay: Luminex dose/response, mean over 5 class II bead types, antibody 2 × 10^-3 µg/ml; SD 72.15

B1: monoclonal chimeric immunoglobulin Hu-IgG1 K [F3.3] (antibody, V domains shown)
VH: EVKLEESGGGLVQPGGSMKLSCVASGFTFSNSWMNWVRQSPEKGLEWVAEIRLKSNNYATRYAESVKGRFTISRDDSKSSVYLQMNNLRSEDTAIYYCTPLSYSFDYWGQGTTVTVST
VL: QIVLTQSPAIMSASPGEKVTMTCSASSIVRYMYWFQQKPGSSPRLLIYDTSSLSSGVPVRFSGSGSGTSYSLTISRMEAEDAATYFCQQWSSYPLTFGGGTKLEIKR
Average (fluorescence intensity) (fluorescence units) [1]: 9130
Average (fluorescence intensity) (fluorescence units) [2]: 22800
MIN (fluorescence units) [3]: 88
Average (fluorescence intensity) (fluorescence units) [4]: 18000
fluorescence (average fluorescence units) [5]: 22000
EC50 [6]: 0.05 µg/mL
Average (fluorescence intensity) (fluorescence units) [7]: 23600
Average (fluorescence intensity) (fluorescence units) [8]: 316
MAX (fluorescence units) [9]: 24600
Average (fluorescence intensity) (fluorescence units) [10]: 3520
Average (fluorescence intensity) (fluorescence units) [11]: 1090
